Target: T1, Her-2/neu peptide on HLA-B*44:02 (human)
T1 peptide: EEYLVPQQGF
Test: cytokine release
Description: This example describes the charaterization of the epitope recognized by one of the T cell clones described above, 17D5. This clone recognized APC expressing the ICD or full-length Her-2/neu protein. The HLA-restriction element for the clone was determined to be HLA-B4402 by using a panel of allogenic cell lines matched at various HLA alleles with the T cell clone as APC in gamma interferon Elispot assays. This was confirmed by transduction of HLA-B44-negative, Her-2/neu-positive APC with a B4402-recombinant retrovirus to confer recognition. The region of the ICD recognized by the clone was narrowed by using recombinant retroviruses expressing a series of five fragments of the ICD to transduce B44+APC. […] Predicted B44-binding 9 mer and 10 mer peptides from within this fragment were chosen and synthesized. Of the 13 peptides synthesized, one was recognized by the clone and determined to be the epitope. […] The sequence of this naturally processed Her-2/neu epitope is: […] (SEQ ID NO: 3), position 1021-1030 in the Her-2/neu protein sequence.

B1: TCR of the 17D5 T cell clone (TCR, V domains shown)
Valpha: AQSVAQPEDQVNVAEGNPLTVKCTYSVSGNPYLFWYVQYPNRGLQFLLKYITGDNLVKGSYGFEAEFNKSQTSFHLKKPSALVSDSALYFCAVRPNSGYSTLTFGKGTMLLVSP
Vbeta: EAQVTQNPRYLITVTGKKLTVTCSQNMNHEYMSWYRQDPGLGLRQIYYSMNVEVTDKGDVPEGYKVSRKEKRNFPLILESPSPNQTSLYFCASSLDWGGLAGGLGTDTQYFGPGTRLTVL
binding result: recognises

Source: patent US20020193329A1 (published 2002)
